Assay: soluble on expression in E. coli; label from the status in PepcDB or PDB records

Sequence: MKFSRPVLSVNHLILGKKCDVCRKKCSGDVLKANDKYFHINCFQCKKCGRNLGETGFYTTPENAYLCPDDFRAVSKEITVKTTTQQAHASSSSAATPKSPEKSNGTTDVSSSGAANATLQQISPLGSPTTCAACDQALHSGQVLLALGLSWHVYCFKCSECSAVLHGEYMSHHGKPLCLRDYNEKFGVKCYECEKFIAGKVLQAGGYKFHPTCARCSRCGSHFGDGEEMYMQGDEIWHPSCEHARTTENIAPTGRAATLSRNEPKYQSTFGQHQAYMYLLPEVEQTYLRHPVMNAKEPNAPQYHVPQGPIKIRKSRMSMLKTGMQRLTEDLEKNIPRPKSPHMDNEEPIELAHYPAAHVPDPDTLPAIEREDFPAPQFPYAVEELKRRLSTSSVENEISDDEYSESDKVDEDKLRKTVETLEKYNDSSIAHVIRQNIEDSHKKQRLPLHWDPRNASRTPSGKKMPHLKFRYDVPINASPSRHLNRPRPWVVWQGGERDQGNNTLPCFHIPEDSRANTLRAATLPTEFGQNLSLENLDTTISSHYSEHSTTESGTAGGPRSAGGAVLRSSLPDMSKPAKQYDLLFLQTTNSDLPEDVDRQHLERHLPRDQFEEIFKMSLIEFYKLPEWKRINLKRKHKLF
- soluble on expression in E. coli: not soluble

Sequence: MSLDVSYSFTPLTGYKDSLVNQHVKLPLNYPTIDNHNPKKSTTPNNEFHKKIATTGKIINLPKQSIVPAVSISVYNDMKTIVLTPMEFQLSSIGFQFQNLIIDLPHSTISTNCITFYYHQDHILIDLIDQNYLFITLKIAIDRFILGGQQLTLDNFEEWGYISVPYSFELRSSPFLLKCLDNLNLIVSLKDGGLLHFKRDEELGEINVFNFQEQGTLIPFLGFFGSGKQKDVVLDGVSSNSIVDALQIGGSGVVITLSVNKVLKLWNLDGHQNLSSLTIASDDNTWLPTIPSKYLKSYDQEDGKTIITLFINTKSGDSSKSMFVFKSFELESSNLHDLSDLSFQPELPNSLLFSSDVFYHESNFQNTIWFIQDYEVVGFGTSQLKYYILWKSNTSSILVEYTINPVNGAILSIEISHPNGFEIDENISAYHDAEYYMDRIFDSGNYDSLIVLTSIKILSQHWEIDNEGHHHHHH
- soluble on expression in E. coli: soluble

Sequence: GPGSMPVDYSKKLDALRELYERVQQKDTDIPEDVYAAAGVKNKARLKDIEKEISTTKKKVSQEVKKVTNEEIEKEYEALAKEHNMTVEEFKETVMGKGRQPALGSEFSERHAAQRKERAEQRDLKETRRQVERGDFDMTVDYV
- soluble on expression in E. coli: soluble

Sequence: MSLADLTFPSLSYRTGPYAAGGIPFADGYADYFTLLNERDGGIGGVKANVLECETGYNTEKGVECYESTKGQGALVYQPLSTGITYQLIPKATADGIAIHSMGYGRTSAKNGNVFSHVFNYPANYWDGASGAVNYLLEINGGDIKGKKIALVYHNSAYGKEPIRTLEELSKKHGFDLSTLPVDHPGQEQKSQWLQIRRDKPDYVLMWGWGVMNQVAVQEAANIRFPMENFIGIWWSGSENDVLPAGDAANGYKALTFHNVGTAFPLFDDLQKYVIDAGKAAGAGDQVGTVLYNRGLYAAMLAAEAAKKAQEISGKADITAADMRDGMEALEMTEAKMAELGLPNFGPTFSVSCGNHGGDALVGVTQWDATSKTWSLISDFKPTDGDVIGALIEEDSSAYASENNISPRCNEGHHHHHH
- soluble on expression in E. coli: soluble

Sequence: MPLTPLDIHNKEFTRGFRGYDEDEVNEFLDQIIKDYEAVLREKKELFDRVTDLDEKLEHFQNIEETLNKSILVAQESAEEVRRNAQKEAQLIVKEAEKNADRIINDALAKSRKIMLEMEELKKQASVYKMRFKMLIEAQLEMLNTDDWDEVTEDSGDERSEEYAE
- soluble on expression in E. coli: not soluble

Sequence: MGSDKIHHHHHHKHIVIMMTFKQDILPIIEALCSEGYHVTVIGKKIYQKDINNINHAYFIPAGNKYIMRHMKVLSKAKIIILDTYYLMMGGYQKKKGQTVIQTWHAAGALKNFGLTDHQVDLKNKAMVRQYKKVYDATDYYLVGGEKMAQCFIQSFDASPSQMLKFGLPRLTQYFRSNLKLEQQRLKKKYHITNKLAVYVPTYREGQVAQRTIDKENFERHLPNYTLLSHLHPSTVDCQTSHSIDVTSLLIMADIIISDYSSLPIEASALNKPTLIYNYDEQQYEKVRGLNEFYYAIPERYKMSNEESIIQAIQDNDEQFQSLFNDWHQYNSKDSLNQLVHFINKLVK
- soluble on expression in E. coli: not soluble

Sequence: QVQLVQSGAEVRKPGASVKVSCKASGDTFSSYAISWVRQAPGQGLEWMGGIIPIFGTANYAQAFQGRVTITANESTSTAYMELSSLRSEDTAIYYCARDNPTLLGSDYWGAGTLVTVSSASTKGPSVFPLAPCSRSTSGGTAALGCLVKDYFPEPVTVSWNSGALTSGVHTFPAVLQSSGLYSLSSVVTVPSSSLGTQTYICNVNHKPSNTKVDKRV
- soluble on expression in E. coli: soluble

Sequence: MSLKDMIDSIEQFAQTQADFPVYDCLGERRTYGQLKRDSDSIAAFIDSLALLAKSPVLVFGAQTYDMLATFVALTKSGHAYIPVDVHSAPERILAIIEIAKPSLIIAIEEFPLTIEGISLVSLSEIESAKLAEMPYERTHSVKGDDNYYIIFTSGTTGQPKGVQISHDNLLSFTNWMIEDAAFDVPKQPQMLAQPPYSFDLSVMYWAPTLALGGTLFALPKELVADFKQLFTTIAQLPVGIWTSTPSFADMAMLSDDFCQAKMPALTHFYFDGEELTVSTARKLFERFPSAKIINAYGPTEATVALSAIEITREMVDNYTRLPIGYPKPDSPTYIIDEDGKELSSGEQGEIIVTGPAVSKGYLNNPEKTAEAFFTFKGQPAYHTGDIGSLTEDNILLYGGRLDFQIKYAGYRIELEDVSQQLNQSPMVASAVAVPRYNKEHKVQNLLAYIVVKDGVKERFDRELELTKAIKASVKDHMMSYMMPSKFLYRDSLPLTPNGKIDIKTLINEVNNREGHHHHHH
- soluble on expression in E. coli: soluble

Sequence: MSLGKPEFYDFCVHAVPDGANAVEELSSLSRHLGYSGIALANHSDKLPSKKPVLPSIEGFEVFRGIELVEENPSKLHGLVGKFRSSMDVLIVHGGSEAVNRAALENPRVDILNHPAFDKSSGLNQVLAKAAAENGVAIGITLRPLLHSRGSRRIRMLSDLKANLELARKYDVPLVLCSDAMSCYDLRSPMETLAFAEVCGLEEDEALDALSTVPKKIIKKNRPGPGYVREGIEVLEGEGHHHHHH
- soluble on expression in E. coli: not soluble

Sequence: MDTDAIRSEIFGQLARPDNSGIPKYRRLSNILVEAIRRGVWQPGDRLPAEEQLTEMTPFSLGTVQRALRALTDEGLVIRMQGHGNFVADQQRQMADPWHCRFLDDESDGIVPIYSKAVQRAVVTPSETGPWQRYLHSGSVMRLDRIINVNDEFRIFSRFYADRELLQPLWHVPLEELDGANFKDIIMRQVGLPITEIDRSVRIRRIDAQAARLIGVAPEATVLFMQAVARAGRDACIYYQEFYIPETGRALQLPEQRPRVHGR
- soluble on expression in E. coli: not soluble

Sequence: MRVKTIMTQNPVTITLPATRNYALELFKKYKVRSFPVVNKEGKLVGIISVKRILVNPDEEQLAMLVKRDVPVVKENDTLKKAAKLMLEYDYRRVVVVDSKGKPVGILTVGDIIRRYFAKSEKYKGVEIEPYYQRYVSIVWEGTPLKAALKALLLSNSMALPVVDSEGNLVGIVDETDLLRDSEIVRIMKSTELAASSEEEWILESHPTLLFEKFELQLPNKPVAEIMTRDVIVATPHMTVHEVALKMAKYSIEQLPVIRGEGDLIGLIRDFDLLKVLVKSKA
- soluble on expression in E. coli: soluble

Sequence: MKWMCSICCAAVLLAGGAAQAEAVPNEPINWGFKRSVNHQPPDAGKQLNSLIEKYDAFYLGNTKEKTIYLTFDNGYENGYTPKVLDVLKKHRVTGTFFVTGHFVKDQPQLIKRMSDEGHIIGNHSFHHPDLTTKTADQIQDELDSVNEEVYKITGKQDNLYLRPPRGVFSEYVLKETKRLGYQTVFWSVAFVDWKINNQKGKKYAYDHMIKQAHPGAIYLLHTVSRDNAEALDDAITDLKKQGYTFKSIDDLMFEKEMRLPSL
- soluble on expression in E. coli: soluble

Sequence: MRRTLHNELQELRGNIRVYCRIRPALKNLENSDTSLINVNEFDDNSGVQSMEVTKIQNTAQVHEFKFDKIFDQQDTNVDVFKEVGQLVQSSLDGYNVCIFAYGQTGSGKTFTMLNPGDGIIPSTISHIFNWINKLKTKGWDYKVNCEFIEIYNENIVDLLRSDNNNKEDTSIGLKHEIRHDQETKTTTITNVTSCKLESEEMVEIILKKANKLRSTASTASNEHSSRSHSIFIIHLSGSNAKTGAHSYGTLNLVDLAGSERINVSQVVGDRLRETQNINKSLSCLGDVIHALGQPDSTKRHIPFRNSKLTYLLQYSLTGDSKTLMFVNISPSSSHINETLNSLRFASKVNSTRLVSRK
- soluble on expression in E. coli: soluble

Sequence: MRKKLLSIALCATMVAGIFTGCGSSSDTSKKDEGKSADGKITLNVINYHVGTDYAADYYEYLFDAFKKTEEGKNVEFKFEEIPTTDAYNQKIKLLISSGDLPDIVLNGGNNITALAAKSGKVTDITEYLDKDPEWKAMFSDQDLEFNSYEGKVYGIPVSKEISYIYYNKDLFKKAGLEAPDVAYETWDDFYKACDTLKSKNITPVSMDTADLGWLSNLWYSGLIGTAGEEGNKFMNTMYPTDYTSDLVVNATEQLQKMLKNYTTSDAAGGKYDTMATHFFNSEVAMLPNGPWMIPDFKSTDKAPEGFYDKVGIMLLPGSGMESVPTPGDMVGTKDPEKVKAAVAFLKFETTAENQLKALEMAGLQPVSSNIEVPDSLKESDPLMAEVLDIQSKAKYTYGQNQAYWYQNVIDTFSTQLPELAYGNMTAKEFCQKLTDAAKKN
- soluble on expression in E. coli: not soluble

Sequence: MGHHHHHHSHMAATSGTDEPVSGELVSVAHALSLPAESYGNDPDIEMAWAMRAMQHAEVYYKLISSVDPQFLKLTKVDDQIYSEFRKNFETLRIDVLDPEELKSESAKEKWRPFCLKFNGIVEDFNYGTLLRLDCSQGYTEENTIFAPRIQFFAIEIARNREGYNKAVYISVQDKEGEKGVNNGGEKRADSGEEENTKNGGEKGADSGEEKEEGINREDKTDKGGEKGKEADKEINKSGEKAM
- soluble on expression in E. coli: not soluble

Sequence: RSLQLDKLVNEMTQHYENSVPEDLTVHVGDIVAAPLPTNGSWYRARVLGTLENGNLDLYFVDFGDNGDCPLKDLRALRSDFLSLPFQAIECSLARIA
- soluble on expression in E. coli: soluble

Sequence: SNPFAHLAEPLDPVQPGKKFFNLNKLEDSRYGRLPFSIRVLLEAAIRNCDEFLVKKQDIENILHWNVTQHKNIEVPFKPARVILQDFTGVPAVVDFAAMRDAVKKLGGDPEKINPVCPADLVIDHSIQVDFNRRADSLQKNQDLEFERNRERFEFLKWGSQAFHNMRIIPPGSGIIHQVNLEYLARVVFDQDGYYYPDSLVGTDSHTTMIDGLGILGWGVGGIEAEAVMLGQPISMVLPQVIGYRLMGKPHPLVTSTDIVLTITKHLRQVGVVGKFVEFFGPGVAQLSIADRATIANMCPEYGATAAFFPVDEVSITYLVQTGRDEEKLKYIKKYLQAVGMFRDFNDPSQDPDFTQVVELDLKTVVPCCSGPKRPQDKVAVSDMKKDFESCLGAKQGFKGFQVAPEHHNDHKTFIYDNTEFTLAHGSVVIAAITSCTNTSNPSVMLGAGLLAKKAVDAGLNVMPYIKTSLSPGSGVVTYYLQESGVMPYLSQLGFDVVGYGCMTCIGNSGPLPEPVVEAITQGDLVAVGVLSGNRNFEGRVHPNTRANYLASPPLVIAYAIAGTIRIDFEKEPLGVNAKGQQVFLKDIWPTRDEIQAVERQYVIPGMFKEVYQKIETVNESWNALATPSDKLFFWNSKSTYIKSPPFFENLTLDLQPPKSIVDAYVLLNLGDSVTTDHISPAGNIARNSPAARYLTNRGLTPREFNSYGSRRGNDAVMARGTFANIRLLNRFLNKQAPQTIHLPSGEILDVFDAAERYQQAGLPLIVLAGKEYGAGSSRDWAAKGPFLLGIKAVLAESYERIHRSNLVGMGVIPLEYLPGENADALGLTGQERYTIIIPENLKPQMKVQVKLDTGKTFQAVMRFDTDVELTYFLNGGILNYMIRKMAK
- soluble on expression in E. coli: soluble

Sequence: MREIPLVSVALATYNGERYLRRQLDSVLAQTYRNIEIVVSDDCSRDGTVAILEEYRRAHGITFRVNERNLGFVRNFERALAGCRGEFIALSDQDDIWLPEKIETLVREIGPHSLIYTDALLIDGDDQPLPGSLVEVSGVRPVSGTCFEYFVCNNCVTGCTAMLRRDLLATALPIPEAETYHDWWLAVAASRRNGVVYHAAKLTEYRQHAHNYTGANVRAGLPARIAAHLMGKTAAEKRGYYELLANRARRYRAMADRLNLTPAERSFLEEIGEYAESLLSGGNRMKTFALALKYRETLFPAAGRWEKLLFVFSKLIAARAILEHHHHHH
- soluble on expression in E. coli: soluble

Reference: the DeepSol protein solubility set
